Legend:
BCR-ABL Y177F (human) [1] = target: BCR-ABL Y177F (human) (UniProt P11274); experiment: native gel or EMSA
[2] = target: kinase-dead BCR-ABL (K271H) (human) (UniProt P11274); experiment: native gel or EMSA
[3] = target: BCR-ABL with deleted FABD domain (human) (UniProt P11274); experiment: co-IP
[4] = target: BCR-ABL with deleted IDR (human) (UniProt P11274); experiment: co-IP
[5] = target: BCR-ABL with deleted DH-PH domains (human) (UniProt P11274); experiment: co-IP
BCR-ABL Y177F (human) [6] = target: BCR-ABL Y177F (human) (UniProt P11274); experiment: co-IP
p190 BCR-ABL (human) = p190 BCR-ABL (human) (UniProt P11274); experiment: proximity ligation
[7] = target: BCR-ABL with deleted PH domain (human) (UniProt P11274); experiment: co-IP

Molecule: GRB2 of NIH3T3 cells (from UniProt Q60631 1-217) (natural protein)
- percent of GRB2 associated (BCR-ABL Y177F (human) [1]): 30%
- percent of GRB2 associated [2]: 30%

Molecule: p85a-PI3K, transfected (from UniProt P27986 1-724) (natural protein)
- decrease of binding against BCR-ABL [3]: 40%
- decrease of binding against BCR-ABL [4]: 70%
- decrease of binding against BCR-ABL [5]: 80%
- decrease of binding against BCR-ABL (BCR-ABL Y177F (human) [6]): 50%

B1: V5-tagged SHIP2 (enzyme)
chain: MASACGAPGPGGALGSQAPSWYHRDLSRAAAEELLARAGRDGSFLVRDSESVAGAFALCVLYQKHVHTYRILPDGEDFLAVQTSQGVPVRRFQTLGELIGLYAQPNQGLVCALLLPVEGEREPDPPDDRDASDGEDEKPPLPPRSGSTSISAPTGPSSPLPAPETPTAPAAESAPNGLSTVSHDYLKGSYGLDLEAVRGGASHLPHLTRTLATSCRRLHSEVDKVLSGLEILSKVFDQQSSPMVTRLLQQQNLPQTGEQELESLVLKLSVLKDFLSGIQKKALKALQDMSSTAPPAPQPSTRKAKTIPVQAFEVKLDVTLGDLTKIGKSQKFTLSVDVEGGRLVLLRRQRDSQEDWTTFTHDRIRQLIKSQRVQNKLGVVFEKEKDRTQRKDFIFVSARKREAFCQLLQLMKNKHSKQDEPDMISVFIGTWNMGSVPPPKNVTSWFTSKGLGKTLDEVTVTIPHDIYVFGTQENSVGDREWLDLLRGGLKELTDLDYRPIAMQSLWNIKVAVLVKPEHENRISHVSTSSVKTGIANTLGNKGAVGVSFMFNGTSFGFVNCHLTSGNEKTARRNQNYLDILRLLSLGDRQLNAFDISLRFTHLFWFGDLNYRLDMDIQEILNYISRKEFEPLLRVDQLNLEREKHKVFLRFSEEEISFPPTYRYERGSRDTYAWHKQKPTGVRTNVPSWCDRILWKSYPETHIICNSYGCTDDIVTSDHSPVFGTFEVGVTSQFISKKGLSKTSDQAYIEFESIEAIVKTASRTKFFIEFYSTCLEEYKKSFENDAQSSDNINFLKVQWSSRQLPTLKPILADIEYLQDQHLLLTVKSMDGYESYGECVVALKSMIGSTAQQFLTFLSHRGEETGNIRGSMKVRVPTERLGTRERLYEWISIDKDEAGAKSKAPSVSRGSQEPRSGSRKPAFTEASCPLSRLFEEPEKPPPTGRPPAPPRAAPREEPLTPRLKPEGAPEPEGVAAPPPKNSFNNPAYYVLEGVPHQLLPPEPPSPARAPVPSATKNKVAITVPAPQLGHHRHPRVGEGSSSDEESGGTLPPPDFPPPPLPDSAIFLPPSLDPLPGPVVRGRGGAEARGPPPPKAHPRPPLPPGPSPASTFLGEVASGDDRSCSVLQMAKTLSEVDYAPAGPARSALLPGPLELQPPRGLPSDYGRPLSFPPPRIRESIQEDLAEEAPCLQGGRASGLGEAGMSAWLRAIGLERYEEGLVHNGWDDLEFLSDITEEDLEEAGVQDPAHKRLLLDTLQLSK
- interaction preserved with nilotinib, against active BCR-ABL (p190 BCR-ABL (human)): > 50%

B2: SHC1, endogenous (natural protein)
chain: MDLLPPKPKYNPLRNESLSSLEEGASGSTPPEELPSPSASSLGPILPPLPGDDSPTTLCSFFPRMSNLRLANPAGGRPGSKGEPGRAADDGEGIVGAAMPDSGPLPLLQDMNKLSGGGGRRTRVEGGQLGGEEWTRHGSFVNKPTRGWLHPNDKVMGPGVSYLVRYMGCVEVLQSMRALDFNTRTQVTREAISLVCEAVPGAKGATRRRKPCSRPLSSILGRSNLKFAGMPITLTVSTSSLNLMAADCKQIIANHHMQSISFASGGDPDTAEYVAYVAKDPVNQRACHILECPEGLAQDVISTIGQAFELRFKQYLRNPPKLVTPHDRMAGFDGSAWDEEEEEPPDHQYYNDFPGKEPPLGGVVDMRLREGAAPGAARPTAPNAQTPSHLGATLPVGQPVGGDPEVRKQMPPPPPCPGRELFDDPSYVNVQNLDKARQAVGGAGPPNPAINGSAPRDLFDMKPFEDALRVPPPPQSVSMAEQLRGEPWFHGKLSRREAEALLQLNGDFLVRESTTTPGQYVLTGLQSGQPKHLLLVDPEGVVRTKDHRFESVSHLISYHMDNHLPIISAGSELCLQQPVERKL
- decrease of the interaction against BCR-ABL [7]: 70%

Reference: publication doi:10.1101/684480
